Tested on: MS2 coat protein
Experiment: apparent KD of MS2 coat protein; designed switch direction (-1 OFF switch, 1 ON switch): 1; higher = weaker reporter binding
Outline: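 Designed RNA switches with common flanks were transcribed on Illumina chips by stalled E. coli RNA polymerase and titrated with SNAP-549-labelled MS2 coat protein, from 0.7 or 1.5 nM doubling to 3 µM, in Tris-HCl pH 7.5 buffer with KCl, MgCl2, BSA, DTT, tRNA and Tween-20. Steps lasted 0.8–1.5 h (lowest) to 10–20 min (highest). Titrations ran without input, with 200 uM small-molecule ligand, or with an oligonucleotide input. Normalised cluster fluorescence was curve-fitted, and apparent KD is the per-design median over clusters.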

[1] = input ligand: microRNA oligo, concentration not stated
[2] = Eterna round: R95, input ligand: FMN 200 uM
[3] = Eterna round: R95, input ligand: microRNA oligo, concentration not stated
[4] = Eterna round: R95, input ligand: none

Sequence	apparent KD of MS2 coat protein (input ligand: FMN 200 uM) [nM]	apparent KD of MS2 coat protein [1] [nM]	apparent KD of MS2 coat protein (input ligand: none) [nM]	apparent KD of MS2 coat protein [2] [nM]	apparent KD of MS2 coat protein [3] [nM]	apparent KD of MS2 coat protein [4] [nM]
CUGAGAUGUCAAGGAUAUCACGUCGAUUAGACGUGAGAAGGUGAUCUGUACAUGAGGAUCACCCAUGUGUUACAUGGAACUCAG [Brourd's SSNG1/1-A2 mod 10] (Eterna round: R96, puzzle: Same State NG 1)	184	30.9	53.9			
CUGAGCGAUCAAGGAUAUCACGUCGAAUAGACGUGAGAAGGUGAUAAUUACAUGAGGAUCACCCAUGUAUAACAUGAAGCUCAG [SSNG1/9-A1] (Eterna round: R96, puzzle: Same State NG 1)	16.6	15.6	22.4			
CUGAGCGAUUAAGGAUAUCACGUCGAUUAGACGUGAGAAGGUGAUCAUAACAUGAGGAUCACCCAUGUAUUACAUGAAGCUCAG [SSNG1/3-A2] (Eterna round: R96, puzzle: Same State NG 1)	312	36.8	128			
CUGCAACAUGAGGAUCACCCAUGUAACCCAAUUAUAGGAUAUGUGAUAGUGAUCGACAUGACAGAAGGGUGAUUGG [Riraence] (puzzle: Same State 1)				149	188	291
CUGCUACAUGAGGAUCACCCAUGUUGGAGUAAUGCAGGAUAUGUGAGACCAGAAGAUAAAACAGAAGGGCAAGGAG [JR_SS!_Sub008] (puzzle: Same State 1)				18.8	20.8	24.6
CUGGAAAACACAGGAUAUACCCGUGAAUCACGGGUAGAAGGGUGAAACAUGAGGAUCACCCAUGUUACCUCCCAAGGGAGGAUU [Zaleisge] (Eterna round: R96, puzzle: Same State NG 1)	432	518	946			
CUGUACCAUGGAGGAUAUGGGCUGAGACCAGGACAACCCUGGUCAACAUGAGGAUCACCCAUGUCCCAGAAGGCCACGGUGCUA [Anraores] (Eterna round: R96, puzzle: Same State NG 2)	16	103	132			
CUGUAUCGCGGAGGAUAUGGGCUGAGACCAGGGCAACCCUGGUCAACAUGAGGAUCACCCAUGUCCCAGAAGGCCGCAAUGCUA [Esatanla] (Eterna round: R96, puzzle: Same State NG 2)	34.7	128	137			
CUUUUUAGUGCAGGAUAUGAUCAACAUGAGGAUCACCCAUGUGGCGUUGUGAGUAGGGAGAGAGAUCAGAAGGGCGUCUCCGCG [SS-NG2-LRO12] (Eterna round: R96, puzzle: Same State NG 2)	46.4	62.3	42.2			
GAAGAACAUGAGGAUCACCCAUGUAAGCGGAAGCUAGGAUAUGCGGGAAAGAAGAGAGAAGCAGAAGGAGUAGGAA [JR_SS1_Sub029] (puzzle: Same State 1)				29.6	34.4	48.8
GACAAGAAGUCAUAGGAUAUACAAGGAGUGACAUGAGGAUCACCCAUGUACCAUCACACUACCCAGUAGAAGGAUGGCAAUAAAA [Oranor] (puzzle: Same State 2)				50.3	384	542
GACAAUCUAUCUGAGGAUAUCAUGAAAAAAACAUGAGGAUCACCCAUGUGCAGGAAAACUGCAUAUGAGAAGGCAGAUAGAUUGG [salish99_SS2_r3_011] (puzzle: Same State 2)				31.2	485	613
GACAAUCUAUCUGAGGAUAUCAUGAAAAAAACAUGAGGAUCACCCAUGUGCAGGAAAACUGCAUAUGAGAAGGCAGAUAGAUUGU [salish99_SS2_r3_010] (puzzle: Same State 2)				45.3	689	627
GACAAUUGACAUGAGGAUCACCCAUGUAUUACUUCGUGUUUUUGCUCGUCUUAUGUUAGGUUCGAAAGGAGCUUAAC [Polished] (puzzle: Sensor for hsa-mir-208a version 2)				68.6	16.2	86.7
GACAGACAUGAGGAUCACCCAUGUACAAACGUACAAGGAUAUGUGUGGAAACCGUACUAUACAGAAGGUGUCUGUC [SS1 - 90] (Eterna round: R96, puzzle: Same State 1)		71.3				
GACAUGAGGAUCACCCAUGUGAGCGCUUCAAUUUGCGCGACACAGGAUAUAGCAUGCUAUGCAUGCUAGAAGGGUGGUAAAGAC [Risoeserxe] (Eterna round: R96, puzzle: Same State NG 3)	595	49.9	140			

Sequence	apparent KD of MS2 coat protein (input ligand: FMN 200 uM) [nM]	apparent KD of MS2 coat protein [1] [nM]	apparent KD of MS2 coat protein (input ligand: none) [nM]	apparent KD of MS2 coat protein [2] [nM]	apparent KD of MS2 coat protein [3] [nM]	apparent KD of MS2 coat protein [4] [nM]
GAGAAGAGGGACAAGGAUAUGUCAGGAGAGACAUGAGGAUCACCCAUGUAGAGGUUGGAGGAGAGACAGAAGGUGUAGGGAGCGA [JR_SS2_Sub012] (puzzle: Same State 2)				50.1	57.2	98
GAGAGACGAUUAGGAUAUACAGUGAUAAUGAUAGUAGAAGGAAUUGACAUGAGGAUCACCCAUGUAGGACUAAUCCAGAGAGAG [Parity 27 - Jieux - Same State NG 1] (Eterna round: R96, puzzle: Same State NG 1)	46	36.4	52.2			
GAGAGAGGGUGAGGAUAUUUAGUGAUAAUGAUAAGAGAAGGCACAGACAUGAGGAUCACCCAUGUGGGAAUAAUCCAGAGAGAG [Parity 8 - Jieux - Same State NG 1] (Eterna round: R96, puzzle: Same State NG 1)		167				
GAGAGAGGGUGAGGAUAUUUGGUGAUAAUGAUGGGAGAAGGCACAGACAUGAGGAUCACCCAUGUGGGAAUAAUCCAGAGAGAG [Parity 11 - Jieux - Same State NG 1] (Eterna round: R96, puzzle: Same State NG 1)	582	182	410			
GAGAGAUGGCGAGGAUAUGCGGUGAUAAUGAUGGCAGAAGGCGCUGACAUGAGGAUCACCCAUGUGGGAAUAAUCCAGAGAGAG [Parity 17 - Jieux - Same State NG 1] (Eterna round: R96, puzzle: Same State NG 1)	279	564	683			
GAGCCAGUCCGAGGAUAUUCAUACAUGAGGAUCACCCAUGUAGGCUCAGAAAAGAAAGAGCCUUGGGAGAAGGCGGACUGGCUC [Xeonanisa<<6] (Eterna round: R96, puzzle: Same State NG 2)	6.96	6.06	10.9			
GAGGGACAGACCAACAUGAGGAUCACCCAUGUCCUCGCAGGUCAGGAUAUCCGGAGGUAGACGAAGGAGAAGGGACGGUGAACC [AK SSNG3-V2-38] (Eterna round: R96, puzzle: Same State NG 3)	893	251	631			
GAGGGAUGAGCGUAGGAUAUAGGAGAAGUGACAUGAGGAUCACCCAUGUGGUAUGAGGGAUGAUUCUAGAAGGACGCGGUAGGAG [JR_SS2_Sub062] (puzzle: Same State 2)				154	494	116
GAGUAGUUGAAAGGAUAUCCAUUGUUAUAGAAUGGAGAAGGUUCUAACAUGAGGAUCACCCAUGUAGGACUAUUCCUGUGUAUC [Parity 81 - Jieux - Same State NG 1] (Eterna round: R96, puzzle: Same State NG 1)	9.98	8.16	11.9			
GAGUAGUUGAUAGGAUAUUGAUUGUUAUAGGAUCAAGAAGGAUCUAACAUGAGGAUCACCCAUGUAGGACUAUUCCUGUGUAUC [Parity 84 - Jieux - Same State NG 1] (Eterna round: R96, puzzle: Same State NG 1)		16.9				
GAGUAUGAACUACAGGAUAUAUAGCAGAUGACAUGAGGAUCACCCAUGUAAGAGAAAGGAGGGAAAUAGAAGGGUAUGGGAGGUG [JR_SS2_Sub036] (puzzle: Same State 2)				37.6	33.9	31.4
GAGUGACGAUUAGGAUAUAUAGUGAUAAUGAUAAUAGAAGGAAUUGACAUGAGGAUCACCCAUGUAGGACUAAUCCAGAGAGAG [Parity 28 - Jieux - Same State NG 1] (Eterna round: R96, puzzle: Same State NG 1)		44.9				
GAGUGAUGGGUUAGUAACUGCUGGGAAGGACAUGAGGAUCACCCAUGUGAGUAACGAGCUUGUGCUCGUCUUAUAAG [JR_SHM208A_Sub022] (puzzle: Sensor for hsa-mir-208a)				388	192	425
GAGUGGAGGAAAGGAUAUACAAUGAUAAUCACAGUAGAAGGUUCUAACAUGAGGAUCACCCAUGUAGGACUAUACCUGAGAGAA [Parity 47 - Jieux - Same State NG 1] (Eterna round: R96, puzzle: Same State NG 1)	9.26	10.8	15.5			
GAGUGGAGGAGAGGAUAUACAAUGAUAAUCACUGUAGAAGGUUCUAACAUGAGGAUCACCCAUGUAGGACUAUUCCUGAGAGUU [Parity 51 - Jieux - Same State NG 1] (Eterna round: R96, puzzle: Same State NG 1)		9.46				

— the supplement of paper PMC9170038
